# Data as given in paper PMC4827828, “Cupincin: A Unique Protease Purified from Rice (Oryza sativa L.) Bran Is a New Member of the Cupin Superfamily” (PLoS ONE, 2016).
# B1: Cupincin (hypothetical protein OsI_13867) (enzyme, UniProt B8AL97 35-470, looked up)
# chain: SRRGEREEEDERRRHGGEGGRPYHFGEESFRHWTRTRHGRFSVLERFPDEQVVGAAVGGYRVAVLEAAPRAFLQPSHYDADEVFYVKEGEGVIVLLREGRKESFCVREGDAMVIPAGAIVYSANTHSSKWFRVVMLLNPVSTPGHFEEYFPVGGDRPESFFSAFSDDVLQAAFNTRREELEKVFERQREGGEITTAPEEQIRELSKSCSRGGGGGSGSEWEIKPSSLTGKSPYFSNNHGKLFELTGDECRHLKKLDLQIGLANITRGSMIAPNYNTRATKLAVVLQGSGYFEMACPHVSGGGSSERREREREHGRRREEEQGEEEHGERGEKARRYHKVRAQVREGSVIVIPASHPATIVASEGESLAVVCFFVGANHDEKVFLAGRNSPLRQLDDPAKKLVFGGSAAREADRVLAAQPEQILLRGPHGRGSVSDM
# notes: Cupincin, hypothetical protein OsI_13867 of Oryza sativa L., 436 residues and 48492.94 Da in the database entry; The native protein runs in SDS-PAGE as three polypeptides (about 34.5, 26.9 and 15.9 kDa) that all match OsI_13867; also called purified protease from rice bran; source: purified from rice bran (variety IR-64): ammonium sulphate fractionation (40-80%), Sephadex G-150
# Molecular target: the molecule itself
# Assay: SEC; analytical gel filtration on Progel-TSK W-3047 (HPLC), 0.1 M sodium phosphate buffer pH 7.0, 1 mL/min; calibrated with standards of 6.5-160 kDa; apparent mass 135.33 ± 3.5 kDa against 48.5 kDa from the sequence
protein,measurement,value
B1,stoichiometry N,3
